From patent publication US20190031713A1 (Regeneron, published 2019)
Changes are numbered by the printed parent chain.

B1: differentially modified heterodimeric human IgG2 Fc/ΔAdpFc (other)
chain 1: ERKCCVECPPCPAPPVAGPSVFLFPPKPKDTLMISRTPEVTCVVVDVSHEDPEVQFNWYVDGVEVHNAKTKPREEQFNSTFRVVSVLTVVHQDWLNGKEYKCKVSNKGLPAPIEKTISKTKGQPREPQVYTLPPSREEMTKNQVSLTCLVKGFYPSDIAVEWESNGQPENNYKTTPPMLDSDGSFFLYSKLTVDKSRWQQGNVFSCSVMHEALHNHYTQKSLSLSPGK
chain 2: B1 chain 1 with H216R, Y217F
B2: unmodified human homodimeric IgG2 Fc/Fc (other, UniProt P01859-1 99-326, looked up)
chain: B1 chain 1 with A159S
notes: domain: Fc; also called hIgG2 Fc/Fc; hIgG2

Biological target: T1, Protein A (on chromatography support) (UniProt P38507 37-327)
T1 construct: Commercial recombinant Protein A resins; also called rProtein A FF; NAb Protein A Plus
Assay: rProtein A FF column, pH gradient, 20 mM sodium citrate, 1 M NaCl
Protocol: The solvent system consisted of solvent A (PBS, 1×), solvent B (20 mM sodium citrate and 1 M NaCl, pH 5.5) and solvent C (20 mM sodium citrate and 1M NaCl, pH 2.5). The elution started with an isocratic elution with 100% A in the first 20 min followed by a quick switch to 100% B at 20 min. […] A linear gradient from 33.5% C to 100% C was followed for 30 min. The flow rate was kept 250 microliters/min and the chromatograms were detected at 280 nm by a UV detector.

Row | Binder | elution pH from Protein A column [pH]
1 | B1 | 4.5
2 | B2 | 3.5
